Results on two molecules are retold here after patent US20110152202A1 (STC UNM, published 2011).

In general, Kd refers to the free concentration of one partner at which half of the binding sites on the other are occupied at equilibrium, for simple one-to-one binding.

For one assay, the target named is human FcγRIII (human). Briefly: SPR, CRP as analyte on immobilized human FcγR. Background: Surface plasmon resonance follows binding to a sensor surface in real time, without labels.
The next assay concerns the target T1, human FcγRI (human, UniProt P12314 16-288, limits assumed).
T1 construct: Immobilized on the SPR chip
Briefly: SPR, CRP as analyte on immobilized human FcγR.

Assay [1] has as its target T2, mouse FcγRI on mouse peritoneal macrophages (from FcγRIIb-/- mice) (mouse, UniProt P26151 25-404).
T2 construct: whole, on cells; also called FcγRI on mouse macrophages
T2 sequence (looked up): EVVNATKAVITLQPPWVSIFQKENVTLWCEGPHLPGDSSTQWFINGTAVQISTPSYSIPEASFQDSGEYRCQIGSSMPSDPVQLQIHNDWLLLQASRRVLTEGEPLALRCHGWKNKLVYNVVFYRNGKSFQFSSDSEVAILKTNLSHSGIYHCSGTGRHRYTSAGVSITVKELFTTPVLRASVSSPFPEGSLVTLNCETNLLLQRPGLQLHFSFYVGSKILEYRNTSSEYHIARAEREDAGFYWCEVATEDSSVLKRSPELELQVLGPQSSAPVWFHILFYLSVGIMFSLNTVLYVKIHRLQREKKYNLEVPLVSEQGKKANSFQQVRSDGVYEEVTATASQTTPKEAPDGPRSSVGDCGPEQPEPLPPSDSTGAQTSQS
Briefly: two-color flow cytometry of CRP bound to mouse peritoneal macrophages expressing FcγRI (from FcγRIIb-/- mice); panel title 'Binding to FcγRI'. From the text: A. Macrophages expressing FcγRI (from FcγRIIb^{-/-} mice). B. Macrophages expressing FcγRIIb (from FcR γ-chain^{-/-} mice).

T1 sequence (P12314 16-288 limits assumed): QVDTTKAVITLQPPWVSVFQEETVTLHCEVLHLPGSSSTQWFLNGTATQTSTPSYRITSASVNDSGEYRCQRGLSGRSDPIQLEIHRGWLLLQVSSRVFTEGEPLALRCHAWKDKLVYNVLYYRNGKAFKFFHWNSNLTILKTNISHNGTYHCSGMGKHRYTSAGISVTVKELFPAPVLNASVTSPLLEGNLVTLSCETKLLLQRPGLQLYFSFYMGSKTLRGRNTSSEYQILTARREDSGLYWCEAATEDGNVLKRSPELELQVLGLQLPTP
Sequence of human FcγRIII (human) (O75015 17-200): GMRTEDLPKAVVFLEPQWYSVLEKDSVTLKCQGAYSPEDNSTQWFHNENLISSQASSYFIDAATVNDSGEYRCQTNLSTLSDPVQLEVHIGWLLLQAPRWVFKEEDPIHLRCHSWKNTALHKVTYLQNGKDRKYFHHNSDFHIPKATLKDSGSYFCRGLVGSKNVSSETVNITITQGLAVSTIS

B1: C-reactive protein (human CRP) (ligand)
chain: QTDMSRKAFVFPKESDTSYVSLKAPLTKPLKAFTVCLHFYTELSSTRGYSIFSYATKRQDNEILIFWSKDIGYSFTVGGSEILFEVPEVTVAPVHICTSWESASGIVEFWVDGKPRVRKSLKKGYTVGAEASIILGQEQDSFGGNFEGSQSLVGDIGNVNMWDFVLSPDEINTIYLGGPFSPNVLNWRALKYEVQGEVFTKPQLWP
notes: also called purified human CRP; native CRP
As for B1, the equilibrium dissociation constant (Kd) with human FcγRIII was found to be 4.1 µM; in the assay with human FcγRI, 3.2 µM. Besides, the binding result in assay [1] is reported as “binds”.

B2: Y175L mutant CRP (tyrosine 175 replaced by leucine) (ligand)
chain: QTDMSRKAFVFPKESDTSYVSLKAPLTKPLKAFTVCLHFYTELSSTRGYSIFSYATKRQDNEILIFWSKDIGYSFTVGGSEILFEVPEVTVAPVHICTSWESASGIVEFWVDGKPRVRKSLKKGYTVGAEASIILGQEQDSFGGNFEGSQSLVGDIGNVNMWDFVLSPDEINTILLGGPFSPNVLNWRALKYEVQGEVFTKPQLWP
notes: It has 206 amino acids; The protein is recombinant; also called Y175L CRP; recombinant Y175L mutant CRP
As to B2, binding with human FcγRI was characterised by a dissociation constant (Kd) of 3.5 µM. In addition, the binding result in assay [1] is recorded as “binds”.
